The values that follow come from the supplement of paper PMC5998384.

Series [1] deals with HeLa Kyoto. The series is described as follows: solubility in G1/S (NP-40 vs SDS abundance) (log2 ratio); higher = more soluble. Particulars: cell cycle stage: G1/S.
Series [2] deals with HeLa Kyoto. The series can be described thus: melting temperature (median over replicates), in situ; higher = more thermally stable.
The subject of series [3] is HeLa Kyoto. The series is described as follows: thermal stability score vs G1/S (z-score of summed log2 fold changes over temperatures); higher = more thermally stable than in G1/S.
Series [4] concerns HeLa Kyoto. The series can be described thus: solubility change mitosis vs G1/S (difference of NP-40 vs SDS log2 ratios) (log2 ratio difference); higher = more soluble in mitosis.
Where [5] appears, read: cell cycle stage: early G1 (4.5 h after nocodazole release).
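For melting temperature (median over replicates), in situ in this document: HeLa Kyoto cells synchronized by double thymidine or nocodazole block, proteins quantified by TMT10plex mass spectrometry, three independent biological replicates.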
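For solubility change mitosis vs G1/S (difference of NP-40 vs SDS log2 ratios) in this document: synchronized HeLa Kyoto cells (double thymidine block for G1/S, nocodazole release for mitosis), protein amounts in NP-40 versus SDS lysates quantified by mass spectrometry, three biological replicates.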
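For solubility in G1/S (NP-40 vs SDS abundance) in this document: HeLa Kyoto cells arrested at G1/S by double thymidine block, proteins quantified by TMT10plex mass spectrometry in mild NP-40 versus SDS extracts, three biological replicates.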
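For thermal stability score vs G1/S (z-score of summed log2 fold changes over temperatures) in this document: synchronized HeLa Kyoto cells, proteins quantified by TMT10plex mass spectrometry, three biological replicates, mitosis taken 0.5 h after nocodazole release, G1/S directly after double thymidine block.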

As to “MKEPLLGGECDKAVASQLGLLDEIKTEPDNAQEYCHRQQSRTQENELKINAVFSESASQLTAGIQLSLASSGVNKMLPSVSTTAIQVSCAGCKKILQKGQTAYQRKGSAQLFCSIPCITEYISSASSPVPSKRTCSNCSKDILNPKDVISVQLEDTTSCKTFCSLSCLSSYEEKRKPFVTICTNSILTKCSMCQKTAIIQYEVKYQNVKHNLCSNACLSKFHSANNFIMNCCENCGTYCYTSSSLSHILQMEGQSHYFNSSKSITAYKQKPAKPLISVPCKPLKPSDEMIETTSDLGKTELFCSINCFSAYSKAKMESSSVSVVSVVHDTSTELLSPKKDTTPVISNIVSLADTDVALPIMNTDVLQDTVSSVTATADVIVDLSKSSPSEPSNAVASSSTEQPSVSPSSSVFSQHAIGSSTEVQKDNMKSMKISDELCHPKCTSKVQKVKGKSRSIKKSCCADFECLENSKKDVAFCYSCQLFCQKYFSCGRESFATHGTSNWKKTLEKFRKHEKSEMHLKSLEFWREYQFCDGAVSDDLSIHSKQIEGNKKYLKLIIENILFLGKQCLPLRGNDQSVSSVNKGNFLELLEMRAKDKGEETFRLMNSQVDFYNSTQIQSDIIEIIKTEMLQDIVNEINDSSAFSIICDETINSAMKEQLSICVRYPQKSSKAILIKERFLGFVDTEEMTGTHLHRTIKTYLQQIGVDMDKIHGQAYDSTTNLKIKFNKIAAEFKKEEPRALYIHCYAHFLDLSIIRFCKEVKELRSALKTLSSLFNTICMSGEMLANFRNIYRLSQNKTCKKHISQSCWTVHDRTLLSVIDSLPEIIETLEVIASHSSNTSFADELSHLLTLVSKFEFVFCLKFLYRVLSVTGILSKELQNKTIDIFSLSSKIEAILECLSSERNDVYFKTIWDGTEEICQKITCKGFKVEKPSLQKRRKIQKSVDLGNSDNMFFPTSTEEQYKINIYYQGLDTILQNLKLCFSEFDYCKIKQISELLFKWNEPLNETTAKHVQEFYKLDEDIIPELRFYRHYAKLNFVIDDSCINFVSLGCLFIQHGLHSNIPCLSKLLYIALSWPITSASTENSFSTLPRLKTYLCNTMGQEKLTGPALMAVEQELVNKLMEPERLNEIVEKFISQMKEI [ZMYM1]”, the “solubility in G1/S (log2)” value in the series on HeLa Kyoto [1] was -0.155. Also, the melting temperature in the series on HeLa Kyoto [2] (cell cycle stage: mitosis) is 50.4 °C. Further, the thermal stability score in the series with HeLa Kyoto [3] (setting [5]) is 0.329; in the series with HeLa Kyoto [3] (cell cycle stage: mitosis), 0.818. In addition, the “solubility change mitosis (log2)” value in the series on HeLa Kyoto [4] was -0.06.

Regarding “MGRIFLDHIGGTRLFSCANCDTILTNRSELISTRFTGATGRAFLFNKVVNLQYSEVQDRVMLTGRHMVRDVSCKNCNSKLGWIYEFATEDSQRYKEGRVILERALVRESEGFEEHVPSDNS [YPEL5]”, the “solubility in G1/S (log2)” value in the series on HeLa Kyoto [1] was determined as 0.00475. The melting temperature with HeLa Kyoto [2] (cell cycle stage: G1/S) was found to be 50.7 °C; in the series with HeLa Kyoto [2] (cell cycle stage: mitosis), 52.5 °C. Besides, the thermal stability score with HeLa Kyoto [3] (setting [5]) is 0.121; with HeLa Kyoto [3] (cell cycle stage: mitosis), -0.0508. Besides, the “solubility change mitosis (log2)” value with HeLa Kyoto [4] is -0.00616.

As for “MAAGVDCGDGVGARQHVFLVSEYLKDASKKMKNGLMFVKLVNPCSGEGAIYLFNMCLQQLFEVKVFKEKHHSWFINQSVQSGGLLHFATPVDPLFLLLHYLIKADKEGKFQPLDQVVVDNVFPNCILLLKLPGLEKLLHHVTEEKGNPEIDNKKYYKYSKEKTLKWLEKKVNQTVAALKTNNVNVSSRVQSTAFFSGDQASTDKEEDYIRYAHGLISDYIPKELSDDLSKYLKLPEPSASLPNPPSKKIKLSDEPVEAKEDYTKFNTKDLKTEKKNSKMTAAQKALAKVDKSGMKSIDTFFGVKNKKKIGKV [RNASEH2B]”, the “solubility in G1/S (log2)” value in the series with HeLa Kyoto [1] is 0.517. Further, the melting temperature in the series with HeLa Kyoto [2] (cell cycle stage: G1/S) was determined as 48.8 °C; in the series with HeLa Kyoto [2] (cell cycle stage: mitosis), 49.7 °C. In addition, the thermal stability score is -0.0838 in the series on HeLa Kyoto [3] (setting [5]) and 0.982 in the series with HeLa Kyoto [3] (cell cycle stage: mitosis). In addition, the “solubility change mitosis (log2)” value in the series with HeLa Kyoto [4] is -0.0965.

“MLSSCVRPVPTTVRFVDSLICNSSRSFMDLKALLSSLNDFASLSFAESWDNVGLLVEPSPPHTVNTLFLTNDLTEEVMEEVLQKKADLILSYHPPIFRPMKRITWNTWKERLVIRALENRVGIYSPHTAYDAAPQGVNNWLAKGLGACTSRPIHPSKAPNYPTEGNHRVEFNVNYTQDLDKVMSAVKGIDGVSVTSFSARTGNEEQTRINLNCTQKALMQVVDFLSRNKQLYQKTEILSLEKPLLLHTGMGRLCTLDESVSLATMIDRIKRHLKLSHIRLALGVGRTLESQVKVVALCAGSGSSVLQGVEADLYLTGEMSHHDTLDAASQGINVILCEHSNTERGFLSDLRDMLDSHLENKINIILSETDRDPLQVV [NIF3L1]”: the “solubility in G1/S (log2)” value with HeLa Kyoto [1] came to 0.187. For the same sequence, the values for the melting temperature with HeLa Kyoto [2] (cell cycle stage: G1/S) and with HeLa Kyoto [2] (cell cycle stage: mitosis) were 60.8 °C and 60.7 °C, respectively. The thermal stability score with HeLa Kyoto [3] (setting [5]) is -0.711; in the series on HeLa Kyoto [3] (cell cycle stage: mitosis) it was -0.332. In addition, the “solubility change mitosis (log2)” value in the series with HeLa Kyoto [4] was -0.161.

Consider “MATSRYEPVAEIGVGAYGTVYKARDPHSGHFVALKSVRVPNGGGGGGGLPISTVREVALLRRLEAFEHPNVVRLMDVCATSRTDREIKVTLVFEHVDQDLRTYLDKAPPPGLPAETIKDLMRQFLRGLDFLHANCIVHRDLKPENILVTSGGTVKLADFGLARIYSYQMALTPVVVTLWYRAPEVLLQSTYATPVDMWSVGCIFAEMFRRKPLFCGNSEADQLGKIFDLIGLPPEDDWPRDVSLPRGAFPPRGPRPVQSVVPEMEESGAQLLLEMLTFNPHKRISAFRALQHSYLHKDEGNPE [CDK4]”, for which, in the series on HeLa Kyoto [1], the “solubility in G1/S (log2)” value is 0.218. The melting temperature came out at 52.7 °C with HeLa Kyoto [2] (cell cycle stage: G1/S) and 52.4 °C with HeLa Kyoto [2] (cell cycle stage: mitosis). Besides, the thermal stability score is 0.0522 in the series on HeLa Kyoto [3] (setting [5]) and -0.366 with HeLa Kyoto [3] (cell cycle stage: mitosis). Further, in the series on HeLa Kyoto [4], the “solubility change mitosis (log2)” value was -0.121.

For the sequence “MSTGTFVVSQPLNYRGGARVEPADASGTEKAFEPATGRVIATFTCSGEKEVNLAVQNAKAAFKIWSQKSGMERCRILLEAARIIREREDEIATMECINNGKSIFEARLDIDISWQCLEYYAGLAASMAGEHIQLPGGSFGYTRREPLGVCVGIGAWNYPFQIASWKSAPALACGNAMVFKPSPFTPVSALLLAEIYSEAGVPPGLFNVVQGGAATGQFLCQHPDVAKVSFTGSVPTGMKIMEMSAKGIKPVTLELGGKSPLIIFSDCDMNNAVKGALMANFLTQGQVCCNGTRVFVQKEILDKFTEEVVKQTQRIKIGDPLLEDTRMGPLINRPHLERVLGFVKVAKEQGAKVLCGGDIYVPEDPKLKDGYYMRPCVLTNCRDDMTCVKEEIFGPVMSILSFDTEAEVLERANDTTFGLAAGVFTRDIQRAHRVVAELQAGTCFINNYNVSPVELPFGGYKKSGFGRENGRVTIEYYSQLKTVCVEMGDVESAF [ALDH9A1]”, the “solubility in G1/S (log2)” value with HeLa Kyoto [1] is 0.24. Moreover, the melting temperature with HeLa Kyoto [2] (cell cycle stage: G1/S) came to 57.1 °C; with HeLa Kyoto [2] (cell cycle stage: mitosis), 57.3 °C. In addition, the thermal stability score in the series on HeLa Kyoto [3] (setting [5]) is 0.248; in the series on HeLa Kyoto [3] (cell cycle stage: mitosis), -0.642. Moreover, the “solubility change mitosis (log2)” value in the series on HeLa Kyoto [4] was -0.0784.

Regarding “MATLITSTTAATAASGPLVDYLWMLILGFIIAFVLAFSVGANDVANSFGTAVGSGVVTLKQACILASIFETVGSVLLGAKVSETIRKGLIDVEMYNSTQGLLMAGSVSAMFGSAVWQLVASFLKLPISGTHCIVGATIGFSLVAKGQEGVKWSELIKIVMSWFVSPLLSGIMSGILFFLVRAFILHKADPVPNGLRALPVFYACTVGINLFSIMYTGAPLLGFDKLPLWGTILISVGCAVFCALIVWFFVCPRMKRKIEREIKCSPSESPLMEKKNSLKEDHEETKLSVGDIENKHPVSEVGPATVPLQAVVEERTVSFKLGDLEEAPERERLPSVDLKEETSIDSTVNGAVQLPNGNLVQFSQAVSNQINSSGHYQYHTVHKDSGLYKELLHKLHLAKVGDCMGDSGDKPLRRNNSYTSYTMAICGMPLDSFRAKEGEQKGEEMEKLTWPNADSKKRIRMDSYTSYCNAVSDLHSASEIDMSVKAEMGLGDRKGSNGSLEEWYDQDKPEVSLLFQFLQILTACFGSFAHGGNDVSNAIGPLVALYLVYDTGDVSSKVATPIWLLLYGGVGICVGLWVWGRRVIQTMGKDLTPITPSSGFSIELASALTVVIASNIGLPISTTHCKVGSVVSVGWLRSKKAVDWRLFRNIFMAWFVTVPISGVISAAIMAIFRYVILRM [SLC20A1]”, in the series with HeLa Kyoto [1], the “solubility in G1/S (log2)” value is -0.24. In the series with HeLa Kyoto [2] (cell cycle stage: mitosis), this sequence yielded a melting temperature of 55.9 °C. Also, the thermal stability score in the series with HeLa Kyoto [3] (setting [5]) is 0.26; in the series on HeLa Kyoto [3] (cell cycle stage: mitosis), -0.79. For the same sequence, the “solubility change mitosis (log2)” value with HeLa Kyoto [4] is -0.149.
